B1: recombinant DSG2 EC2-EC3 extracellular domains (domain or fragment, human, UniProt Q14126 149-386, looked up)
chain: VLDINDNEPVFTQDVFVGSVEELSAAHTLVMKINATDADEPNTLNSKISYRIVSLEPAYPPVFYLNKDTGEIYTTSVTLDREEHSSYTLTVEARDGNGEVTDKPVKQAQVQIRILDVNDNIPVVENKVLEGMVEENQVNVEVTRIKVFDADEIGSDNWLANFTFASGNEGGYFHIETDAQTNEGIVTLIKEVDYEEMKNLDFSVIVANKAAFHKSIRSKYKPTPIPIKVKVKNVKEGI
notes: desmoglein 2 (DSG2), human, EC2-EC3 domains, residues V149-I386 of Swiss-Prot Q14126.2; Cloned AgeI/KpnI in pHL-sec, which supplies a secretion signal and the C-terminal His6; also called rDSG2; soluble rDSG2; source: HEK293 F, transiently transfected, secreted, purified from supernatant (His GraviTrap, Superdex 200)
B2: human HAdV-11 fiber knob, wild type (domain or fragment)
chain: DDNINTLWTGVNPTEANCQIMNSSESNDCKLILTLVKTGALVTAFVYVIGVSNNFNMLTTHRNINFTAELFFDSTGNLLTRLSSLKTPLNHKSGQNMATGAITNAKGFMPSTTAYPFNDNSREKENYIYGTCYYTASDRTAFPIDISVMLNRRAINDETSYCIRITWSWNTGDAPEVQTSATTLVTSPFTFYYIREDD
notes: HAdV-11 fiber protein, knob, residues D128 to D325 of Swiss-Prot P35774; gene synthesised by GenScript; Trimeric form purified; amine-coupled to the biosensor in the kinetic BLI; also called HAd11K; HAd11 knob; not shown: His6, N-terminal, kept

Key:
[1] = biological target: B2; assay: cryo-EM structure; SEC fraction of HAd11K/rDSG2/rCD46 super-complex (rDSG2:rCD46 3:1); settings: both partners purified
[2] = biological target: B2; assay: BLI; HAd11K (WT or D265A), 100 µg/mL in 10 mM sodium acetate pH 4, amine-coupled to AR2G biosensor; rDSG2 or rCD46 0.7-10.8 µM in HBS-P (10 mM HEPES, 145 mM NaCl, 0.005% P20, pH 7.4) with 3 mM CaCl2; room temperature; association 180 s, dissociation 120 s; global fit; settings: both partners purified
[3] = biological target: B1; assay: as above; settings: both partners purified
[4] = biological target: the molecule itself; assay: cryo-EM structure; HAd11K in complex with rDSG2; two populations (one or two rDSG2 per knob trimer)

| Binder | stoichiometry N [1] | Kd [2] [µM] | koff [2] [s⁻¹] | kon [2] [M⁻¹ s⁻¹] | Kd [3] [µM] | koff [3] [s⁻¹] | kon [3] [M⁻¹ s⁻¹] | stoichiometry N [4] |
| --- | --- | --- | --- | --- | --- | --- | --- | --- |
| B1 | 1 | – | – | – | – | – | – | – |
| recombinant CD46 SCR1-SCR2 domains (domain or fragment, human, UniProt P15529 35-160, looked up, hCD46, the two first extracellular domains (SCR1, SCR2), residues C35-V160 of Swiss-Prot P15529; gene synthesised by GenScript; Cloned in the same vector pHL-sec as rDSG2 (secretion signal, C-terminal His6); also called rCD46; soluble rCD46; source: HEK293 F, transiently transfected, secreted, purified from supernatant (His GraviTrap, Superdex 200)) CEEPPTFEAMELIGKPKPYYEIGERVDYKCKKGYFYIPPLATHTICDRNHTWLPVSDDACYRETCPYIRDPLNGQAVPANGTYEFGYQMHFICNEGYYLIGEEILYCELKGSVAIWSGKPPICEKV | 1 | 0.243 | 0.005 | 22800 | – | – | – | – |
| B2 | – | – | – | – | 2.9 | 0.114 | 39400 | 3 |

Source: publication PMC10688334, “Toward the understanding of DSG2 and CD46 interaction with HAdV-11 fiber, a super-complex analysis” (Journal of Virology, 2023)
